The record followed here is US20200317776A1 (published 2020).

The target of assay [1] is human TREM2/DAP12 fusion protein (human, UniProt O43914 41-113, limits assumed). Put plainly: cell-based or functional assay.
Assay [2] deals with T1, human TREM2 Fc fusion (entire TREM2 ECD; only one Fc arm fused to TREM2) (human, UniProt Q9NZC2 19-174).
T1 construct: also called huTREM2-Fc; recombinant hTREM2
T1 sequence: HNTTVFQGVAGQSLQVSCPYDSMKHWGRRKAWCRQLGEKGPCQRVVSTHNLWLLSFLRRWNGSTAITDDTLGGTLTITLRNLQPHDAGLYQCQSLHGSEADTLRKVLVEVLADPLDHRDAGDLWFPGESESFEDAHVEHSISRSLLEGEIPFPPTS
Put plainly: BLI, IgG, avid. The procedure:
Briefly, IgGs were loaded on-line onto AHQ sensors, Sensors were equilibrated off-line in assay buffer for 30 minutes and then monitored on-line for 60 seconds for baseline establishment. For avid binding measurement, sensors with loaded IgGs were exposed to 100 nM antigen (human or cynomolgus monkey TREM2 Fe fusion using the entire TREM2 ECD; only one Fc arm was fused to TREM2) for 3 minutes, afterwards they were transferred to assay buffer for 3 minutes for off-rate measurement. Monovalent binding measurements were obtained by loading human TREM2 Fc fusion antigens to AHQ sensor and followed by exposure to 100 nM TREM2 antibody Fab. Kinetics data were fit using a 1:1 binding model in the data analysis software provided by ForteBio. Assay was run at room temperature (25° C.).
On the technique in general: In BLI a coated tip is dipped into the sample, and binding shifts an interference pattern.

The target in assay [3] is T1, human TREM2 Fc fusion (entire TREM2 …). Description: BLI, Fab, monovalent.
The target in assay [4] is T2, cynomolgus monkey TREM2 Fc fusion (entire TREM2 ECD; only one Fc arm fused to TREM2) (cynomolgus monkey, UniProt Q9NZC2 19-174 (human entry)).
T2 construct: also called cyno TREM2-Fc
T2 chain: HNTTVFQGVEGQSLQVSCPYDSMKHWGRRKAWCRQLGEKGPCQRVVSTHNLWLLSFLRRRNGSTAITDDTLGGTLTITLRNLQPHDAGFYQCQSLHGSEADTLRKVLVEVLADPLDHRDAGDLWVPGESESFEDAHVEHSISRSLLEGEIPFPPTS
Put plainly: BLI, Fab, monovalent.

For assay [5], the target named is T3, human TREM2 expressed on cells (human, UniProt Q9NZC2 19-230).
T3 construct: BW5147.G.1.4 cells stably expressing human TREM2 together with Dap12, or endogenous TREM2 of primary human myeloid cells; also called huT2 BW; hTREM2 expressing cell line
T3 sequence: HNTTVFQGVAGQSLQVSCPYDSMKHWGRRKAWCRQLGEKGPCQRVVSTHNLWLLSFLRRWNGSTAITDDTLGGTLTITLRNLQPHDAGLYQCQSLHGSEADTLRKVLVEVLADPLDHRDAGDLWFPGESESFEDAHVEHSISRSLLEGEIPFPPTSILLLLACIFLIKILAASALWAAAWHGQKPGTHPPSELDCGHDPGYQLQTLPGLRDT
Description: FACS, hTREM2 BW cells. From the text:
To examine cell binding of affinity matured anti-TREM2 antibodies, both primary human monocyte derived dendritic cells and recombinant, human TREM2 expressing cells were utilized. For the latter, BW5147.G.1.4 (ATCC® TIB48™) and HEK293T cells stably expressing human TREM2 together with Dap12 using viral infection were established. For primary human monocyte derived dendritic cells, human monocytes were isolated from whole blood using RosetteSep Human monocyte enrichment cocktail (Stemcell technologies) and Ficoll centrifugation per manufacturer protocols. After lysing red blood cells with ACK lysing buffer, monocytes were resuspended in complete media (RPMI, 10% FBS, Pen/Strep, L-glutamine, HEPES, non-essential amino acid, Sodium pyruvate) with 100 ng/ml human GM-CSF (hu-GMCSF) and, human IL-4 (hu-IL-4) to differentiate dendritic cells for 6 days.
Cells were harvested by trypsinization (Hek293T) or scraping (BW and dendritic cells), washed in PBS, counted and plated on 96-well U bottom plates at […] cells/well. The plates were spun at 1,400 rpm for 3 minutes and primary TREM2 or control antibodies were added in FACS buffer (PBS+2% FBS) and incubated on ice for one hour. Cells were subsequently centrifuged as before and washed thrice with FACS buffer. Cells were then incubated with anti-human PE conjugated secondary antibody (BD Biosciences) in FACS buffer for 30 minutes on ice. Cells were again washed thrice with FACS buffer and analyzed on a BD FACS Canto or an Intellicyt Flow Cytometer. Binding was measured as mean fluorescence intensity in the APC channel.
A general note: Flow cytometry measures light scatter and fluorescence of single cells or particles in a stream.

human TREM2/DAP12 fusion protein, sequence (O43914 other isoform, or with tags, fused parts or gaps limits assumed): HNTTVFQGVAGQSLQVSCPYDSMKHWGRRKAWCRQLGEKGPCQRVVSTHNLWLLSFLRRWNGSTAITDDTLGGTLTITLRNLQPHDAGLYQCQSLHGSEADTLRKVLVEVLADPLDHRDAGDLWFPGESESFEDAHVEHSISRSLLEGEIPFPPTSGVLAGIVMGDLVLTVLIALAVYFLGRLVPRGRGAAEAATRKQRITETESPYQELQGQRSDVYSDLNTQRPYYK

B1: AL2p-7 (antibody, V domains shown)
VH: QVQLVQSGAEVKKPGSSVKVSCKASGYAFSLSWMNWVRQAPGQGLEWMGRIYPGDGDTNYAQKFRGRVTITADESTSTAYMELSSLRSEDTAVYYCARLLRNQPGESYAMDYWGQGTLVTVSS
VL: GVVMTQTPLSLSVTPGQPASISCRSSQSLIHSNGYTYLHWYLQKPGQSPQLLIYKVSNRRSGVPDRFSGSGSGTDFTLKISRVEAEDVGVYYCSQSTRVPYTFGQGTKLEIK
notes: Fab and IgG formats under one id
For the molecule B1, the “Luciferase activation plate bound 33 nM IgG, FOC” value in assay [1] was 18.9 FOC. The “Luciferase activation soluble 10 nM IgG, FOC” value in assay [1] was 2.35 FOC. The dissociation constant (Kd) (commonly the concentration at which binding is half-saturated) in assay [2] was determined as 0.427 nM; in assay [3], 8.38 nM; in assay [4], 8.95 nM; in assay [5] it was 1.6 nM.

B2: AL2p-13 (antibody, V domains shown)
VH: QVQLVQSGAEVKKPGSSVKVSCKASGYAFSSHWMNWVRQAPGQGLEWMGRIYPGDGDTNYAQKFKGRVTITADESTSTAYMELSSLRSEDTAVYYCARLLRNQPGESYAMDYWGQGTLVTVSS
VL: GVVMTQTPLSLSVTPGQPASISCRSSQSLIHSNGYTYLHWYLQKPGQSPQLLIYKVSNRRSGVPDRFSGSGSGTDFTLKISRVEAEDVGVYYCSQSTRVPYTFGQGTKLEIK
notes: Fab and IgG formats under one id; also called AL22-13
Regarding B2, the “Luciferase activation plate bound 33 nM IgG, FOC” value in assay [1] came to 16.5 FOC. For the same molecule, the “Luciferase activation soluble 10 nM IgG, FOC” value in assay [1] is 2.17 FOC. The Kd was 0.34 nM in assay [2], 4.8 nM in assay [3], 4.93 nM in assay [4] and 1.5 nM in assay [5].

B3: AL2p-61 (antibody, IgG1, V domains shown)
VH: QVQLVQSGAEVKKPGSSVKVSCKASGYAFSSQWMNWVRQAPGQGLEWMGRIYPGEGDTNYARKFQGRVTITADESTSTAYMELSSLRSEDTAVYYCARLLRNQPGESYAMDYWGQGTLVTVSS
VL: GVVMTQTPLSLSVTPGQPASISCRSSQSLVHSNQYTYLHWYLQKPGQSPQLLIYKVSNRRSGVPDRFSGSGSGTDFTLKISRVEAEDVGVYYCSQSTRVPYTFGQGTKLEIK
Regarding B3, the Kd was found to be 3730 nM in assay [3] and 3.84 nM in assay [4].

B4: AL2p-18 (antibody, V domains shown)
VH: QVQLVQSGAEVKKPGSSVKVSCKASGYAFSSHWMNWVRQAPGQGLEWMGRIYPGDGDTNYAQKWQGRVTITADESTSTAYMELSSLRSEDTAVYYCARLLRNQPGSSYAMDYWGQGTLVTVSS
VL: GVVMTQTPLSLSVTPGQPASISCRTSQSLVHSNGYTYLHWYLQKPGQSPQLLIYKVSNRVSGVPDRFSGSGSGTDFTLKISRVEAEDVGVYYCSQSTRVPYTFGQGTKLEIK
notes: as for B1
With B4, in assay [1], the “Luciferase activation plate bound 33 nM IgG, FOC” value was determined as 8.46 FOC. The “Luciferase activation soluble 10 nM IgG, FOC” value in assay [1] is 2.06 FOC. In addition, the Kd in assay [2] was 0.229 nM; in assay [3], 3.17 nM; in assay [4] it was 2.73 nM; in assay [5] it was 1.3 nM.

B5: AL2p-17 (antibody, V domains shown)
VH: QVQLVQSGAEVKKPGSSVKVSCKASGYAFSSHWMNWVRQAPGQGLEWMGRIYPGDGDTNYAQKRQGRVTITADESTSTAYMELSSLRSEDTAVYYCARLLRNQPGESYAMDYWGQGTLVTVSS
VL: DVVMTQTPLSLSVTPGQPASISCRSSRSLVHSNGYTYLHWYLQKPGQSPQLLIYKVSNRVSGVPDRFSGSGSGTDFTLKISRVEAEDVGVYYCSQSTRVPYTFGQGTKLEIK
notes: as for B1
With B5, in assay [1], the “Luciferase activation plate bound 33 nM IgG, FOC” value stood at 23.8 FOC. For the same molecule, the “Luciferase activation soluble 10 nM IgG, FOC” value in assay [1] is 2.13 FOC. The Kd in assay [2] was 0.255 nM; in assay [3], 4.83 nM; in assay [4], 4.62 nM; in assay [5] it was 1.4 nM.

B6: AL2p-10 (antibody, V domains shown)
VH: QVQLVQSGAEVKKPGSSVKVSCKASGYAFSSDWMNWVRQAPGQGLEWMGRIYPGDGDTNYAQKFQGRVTITADESTSTAYMELSSLRSEDTAVYYCARLLRNQPGESYAMDYWGQGTLVTVSS
VL: GVVMTQTPLSLSVTPGQPASISCRSSQSLVHSNGYTYLHWYLQKPGQSPQLLIYKVSNRRSGVPDRFSGSGSGTDFTLKISRVEAEDVGVYYCSQSTRVPYTFGQGTKLEIK
notes: as for B1
Take B6: in assay [1], the “Luciferase activation plate bound 33 nM IgG, FOC” value is 4.63 FOC. The “Luciferase activation soluble 10 nM IgG, FOC” value in assay [1] amounted to 1.6 FOC. Moreover, the Kd in assay [2] was 0.835 nM; in assay [3] it was 18.5 nM; in assay [4] it was 27.7 nM; in assay [5], 3.1 nM.

B7: AL2p-14 (antibody, V domains shown)
VH: QVQLVQSGAEVKKPGSSVKVSCKASGYAFSSHWMNWVRQAPGQGLEWMGRIYPGDGDTNYAQKFQGRVTITADESTSTAYMELSSLRSEDTAVYYCARLLRNQPGESYAMDYWGQGTLVTVSS
VL: GVVMTQTPLSLSVTPGQPASISCRSSRSLVHSNGYTYLHWYLQKPGQSPQLLIYKVSNRFSGVPDRFSGSGSGTDFTLKISRVEAEDVGVYYCSQSTRVPYTFGQGTKLEIK
notes: as for B1
On to B7, for which the “Luciferase activation plate bound 33 nM IgG, FOC” value in assay [1] stood at 27.1 FOC. The “Luciferase activation soluble 10 nM IgG, FOC” value in assay [1] was 1.79 FOC. The Kd in assay [2] is 0.315 nM; in assay [3] it was 4.74 nM; in assay [4] it was 4.66 nM; in assay [5] it was 2.1 nM.

B8: AL2p-11 (antibody, V domains shown)
VH: QVQLVQSGAEVKKPGSSVKVSCKASGYAFSSDWMNWVRQAPGQGLEWMGRIYPGDGDTNYARKFQGRVTITADESTSTAYMELSSLRSEDTAVYYCARLLRNQPGESYAMDYWGQGTLVTVSS
VL: DVVMTQTPLSLSVTPGQPASISCRSSRSLVHSNGYTYLHWYLQKPGQSPQLLIYKVSNRVSGVPDRFSGSGSGTDFTLKISRVEAEDVGVYYCSQSTRVPYTFGQGTKLEIK
notes: as for B1
In the case of B8, in assay [1], the “Luciferase activation plate bound 33 nM IgG, FOC” value stood at 23.6 FOC. For the same molecule, in assay [1], the “Luciferase activation soluble 10 nM IgG, FOC” value came to 1.71 FOC. The Kd in assay [2] is 0.536 nM; in assay [3], 9.83 nM; in assay [4] it was 10.2 nM; in assay [5], 2.4 nM.

B9: AL2p-19 (antibody, V domains shown)
VH: QVQLVQSGAEVKKPGSSVKVSCKASGYAFSSHWMNWVRQAPGQGLEWMGRIYPGDGDTNYARKFQGRVTITADESTSTAYMELSSLRSEDTAVYYCARLLRNQPGESYAMDYWGQGTLVTVSS
VL: DVVMTQTPLSLSVTPGQPASISCRSSRSLVHSNGYTYLHWYLQKPGQSPQLLIYKVSNRVSGVPDRFSGSGSGTDFTLKISRVEAEDVGVYYCSQSTRVPYTFGQGTKLEIK
notes: as for B1
For B9, the “Luciferase activation plate bound 33 nM IgG, FOC” value in assay [1] was 25.9 FOC. For the same molecule, the “Luciferase activation soluble 10 nM IgG, FOC” value in assay [1] was 2.06 FOC. The Kd amounted to 0.303 nM in assay [2], 4.02 nM in assay [3], 4.01 nM in assay [4] and 1.4 nM in assay [5].

B10: AL2p-12 (antibody, V domains shown)
VH: QVQLVQSGAEVKKPGSSVKVSCKASGYAFSSHWMNWVRQAPGQGLEWMGRIYPGDGDTNYAHKFQGRVTITADESTSTAYMELSSLRSEDTAVYYCARLLRNQPGESYAMDYWGQGTLVTVSS
VL: GVVMTQTPLSLSVTPGQPASISCRSSQSLVHSNGYTYLHWYLQKPGQSPQLLIYKVSNRRSGVPDRFSGSGSGTDFTLKISRVEAEDVGVYYCSQSTRVPYTFGQGTKLEIK
notes: as for B1
In the case of B10, the “Luciferase activation plate bound 33 nM IgG, FOC” value in assay [1] is 15.8 FOC. Moreover, in assay [1], the “Luciferase activation soluble 10 nM IgG, FOC” value was found to be 1.96 FOC. For the same molecule, the Kd in assay [2] worked out at 0.514 nM; in assay [3], 5.86 nM; in assay [4], 5.25 nM; in assay [5] it was 1.8 nM.
